Test results reported in patent publication US20140186348A1 (published 2014).
Residue numbers refer to the chain shown, from its start. Like-named read-outs stand apart in the source and are kept apart here.

B1: NM9401-F(ab′)2 (other)
VH: QVQLQQSAPELARPGASVKMSCTASGYIFTNYPIHWVKQRPGQGLEWIGFIDPGGGYDEPDERFRDRATLTADKSSSTAYMQLSSLTSEDSAIYYCARRGGGYYLDYWGQGTTLTVSSAKTT
VL: DIQMTQTTSSLSASLGDRVTISCRASQDISFFLNWYQQKPDGTVKLLIYYTSRYHSGVPSRFSGSGSGTDFSLTINNLEQEDFATYFCQHGNTLPWTFGGGTKLEIKRADAAPTVSIFPPSSEQLTSGGASVVCFLNN
B2: NM9401-IgG (murine anti-properdin monoclonal antibody, IgG1) (antibody, V domains shown)
VH: QVQLQQSAPELARPGASVKMSCTASGYIFTNYPIHWVKQRPGQGLEWIGFIDPGGGYDEPDERFRDRATLTADKSSSTAYMQLSSLTSEDSAIYYCARRGGGYYLDYWGQGTTLTVSS
VL: DIQMTQTTSSLSASLGDRVTISCRASQDISFFLNWYQQKPDGTVKLLIYYTSRYHSGVPSRFSGSGSGTDFSLTINNLEQEDFATYFCQHGNTLPWTFGGGTKLEIKR
B3: NM9401-Fab (Fab, V domains shown)
VH: B2 VH
VL: B2 VL
B4: BAP010hum02 (humanized anti-properdin monoclonal antibody) (antibody, V domains shown)
VH: QVQLQESGPGLVKPSQTLSLTCTVSGYIFTNYPIHWVRQAPGKGLEWVSFIDPGGGYDEPDERFRDRVTISVDTSKNQFSLKLSSVTAADTAVYYCARRGGGYYLDYWGQG
VL: EIVLTQSPATLSLSPGERATLSCRASQDISFFLNWFQQRPGQSPRRLIYYTSRYHSGIPPRFSGSGYGTDFTLTINNIESEDAAYYFCQHGNTLPWTFGQG
B5: BAP010hum10 (humanized anti-properdin monoclonal antibody) (antibody, V domains shown)
VH: QVQLQESGPGLVKPSQTLSLTCTVSGYIFTNYPIHWVRQATGQGLEWMGFIDPGGGYDEPDERFRDRVTITADKSTSTAYMELSSLRSEDTAVYYCARRGGGYYLDYWGQG
VL: DIQMTQSPSSLSASVGDRVTITCRASQDISFFLNWYQQKPGKAPKLLIYYTSRYHSGIPPRFSGSGYGTEFTFTISSLEAEDAATYYCQHGNTLPWTFGQG
B6: BAP010hum03 (humanized anti-properdin monoclonal antibody) (antibody, V domains shown)
VH: EVQLVQSGAEVKKPGESLRISCKGSGYIFTNYPIHWIRQSPSRGLEWLGFIDPGGGYDEPDERFRDRVTISADKSISTAYLQWSSLKASDTAMYYCARRGGGYYLDYWGQG
VL: B5 VL with I58V, P60S, Y67S, F73L, E79Q, A80S, A83F, T85V

Experiments:
human properdin [1] = molecular target: T1, human properdin (human, UniProt P27918 28-469); assay: ELISA
human properdin [2] = molecular target: T1, human properdin; assay: ELISA; remark: listed apart in the source
human properdin [3] = molecular target: T1, human properdin; assay: ELISA, inhibition of properdin binding to C3b
human properdin [4] = molecular target: T1, human properdin; assay: ELISA; remark: listed apart in the source

T1 sequence (P27918 28-469): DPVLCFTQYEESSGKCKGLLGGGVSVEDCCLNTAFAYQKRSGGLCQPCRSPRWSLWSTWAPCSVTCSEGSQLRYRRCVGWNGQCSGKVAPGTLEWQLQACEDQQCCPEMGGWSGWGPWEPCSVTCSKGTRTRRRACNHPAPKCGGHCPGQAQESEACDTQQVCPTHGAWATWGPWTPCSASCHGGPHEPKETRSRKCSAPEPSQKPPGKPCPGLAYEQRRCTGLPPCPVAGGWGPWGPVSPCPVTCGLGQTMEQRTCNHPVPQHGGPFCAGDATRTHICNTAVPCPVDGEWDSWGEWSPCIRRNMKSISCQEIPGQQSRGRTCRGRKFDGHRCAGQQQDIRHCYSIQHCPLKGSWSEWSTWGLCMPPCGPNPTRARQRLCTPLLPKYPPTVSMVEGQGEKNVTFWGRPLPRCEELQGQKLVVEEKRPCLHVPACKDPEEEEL

Row | Binder | Kd (human properdin [1]) [nM] | Kd (human properdin [4]) [nM] | also measured
1 | B1 | 0.118 | – | –
2 | B2 | 0.101 | – | Kd (human properdin [2]): 0.256 nM; IC50 (human properdin [3]): 10.7 nM
3 | B3 | 0.103 | – | –
4 | B4 | – | 0.0138 | –
5 | B5 | – | 0.0236 | –
6 | B6 | – | 0.0207 | –
